How the values were obtained:
[1] = target: T1, FcγRI (CD64) on IFNγ-activated U937 cells (UniProt P12314 16-374, limits assumed); experiment: FcγRI bridging assay, FIG. 13 upper panel
T1 construct: whole, on cells; also called FcRγI
Protocol: (§1) Briefly, the FcγR bridging assay was performed by coating 96 well Maxisorb ELISA plates (Nalge-Nunc Rochester, N.Y., USA) with recombinant soluble human CD154 ligand (i.e., at a concentration of 1 μg/ml overnight at 4° C. in PBS; Karpusas, Hsu et al. 1995). Titrations of glycosylated or aglycosylated forms of anti-CD154 antibody (hu5c8) were then bound to CD154 for 30 minutes at 37° C., the plates were then washed, and the binding of fluorescently labeled U937 (CD64⁺) cells was measured. The U937 cells were grown in RPMI medium with 10% FBS, 10 mM HEPES, L-glutamine, and penicillin/streptomycin, split 1:2, and activated for one day prior to the assay with 1000 units/ml of IFNγ to increase Fc receptor (FcγRI) expression.
(§2) In the assays for both receptors, the Fc receptor-bearing cells were labeled with 2′,7′-bis-(2-carboxyethyl)-5-(and-6)-carboxyfluorescein acetoxymethyl ester (BCECF-AM) (Molecular Probes Eugene, Oreg., USA) for 20 minutes at 37° C. After washing to remove excess label, 1×10⁵ of the labeled cells were incubated in the assay for 30 minutes at 37° C. Unbound FcγR positive cells were removed by washing several times and plates were read on a microplate reader (Cytofluor 2350 Fluorescent Microplate Reader, Millipore Corporation Bedford, Mass., USA) at an excitation wavelength of 485 nm and an emission wavelength of 530 nm.

[2] = target: T2, human C1q (Sigma C0660) (human, UniProt P02745 23-245; P02746 28-253; P02747 29-245); experiment: C1q bridging ELISA: antibody captured on plate-coated soluble human CD154, human C1q detected with sheep anti-C1q
T2 construct: The three subunits come from general knowledge of C1q; also called complement protein C1q
Protocol: (§3) The C1q binding assay was performed by coating 96 well Maxisorb ELISA plates (Nalge-Nunc Rochester, N.Y., USA) with 50 μl recombinant soluble human CD154 ligand (Karpusas et al. Structure, 15;3(12):1426 (1995) at 10 μg/ml overnight at 4° C. in PBS. The wells were aspirated and washed three times with wash buffer (PBS, 0.05% Tween 20) and blocked for ≧1 h with 200 μl/well of block/diluent buffer (0.1 M Na₂HPO₄, pH 7, 0.1 M NaCl, 0.05% Tween 20, 0.1% gelatin). The antibody to be tested was diluted in block/diluent buffer starting at 15 μg/ml with 3-fold dilutions. 50 μl were added per well, and the plates incubated for 2 h at room temperature. After aspirating and washing as above, 50 μl/well of 2 μg/ml of Sigma human C1q (C0660) diluted in block/diluent buffer was added and incubated for 1.5 h at room temperature. After aspirating and washing as above, 50 μl/well of sheep anti C1q (Serotec AHP033), diluted 3,560-fold in block/diluent buffer, was added. After incubation for 1 h at room temperature, the wells were aspirated and washed as above. […] The absorbance was read at 450 nm with a Softmax PRO instrument, and Softmax software was used to determine the relative binding affinity (C value) with a 4-parameter fit.

[3] = target: T2, human C1q (Sigma C0660); experiment: C1q bridging ELISA: antibody captured on plate-coated soluble human CD154, human C1q 2 µg/ml detected with sheep anti-C1q
Protocol: as §3

[4] = target: T1, FcγRI (CD64) on IFNγ-activated U937 …; experiment: FcγRI bridging assay: antibody captured on plate-coated soluble human CD154, binding of fluorescently labeled IFNγ-activated U937 (CD64+) cells
Protocol: as §1, §2

T2 sequence (P02745 23-245 limits assumed, chain 1 of 3): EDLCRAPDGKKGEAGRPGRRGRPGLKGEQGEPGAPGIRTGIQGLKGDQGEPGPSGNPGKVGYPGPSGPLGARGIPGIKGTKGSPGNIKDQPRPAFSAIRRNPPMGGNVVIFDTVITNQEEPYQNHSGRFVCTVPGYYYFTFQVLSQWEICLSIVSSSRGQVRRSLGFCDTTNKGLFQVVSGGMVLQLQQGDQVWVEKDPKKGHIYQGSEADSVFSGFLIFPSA
T2 sequence (P02746 28-253 limits assumed, chain 2 of 3): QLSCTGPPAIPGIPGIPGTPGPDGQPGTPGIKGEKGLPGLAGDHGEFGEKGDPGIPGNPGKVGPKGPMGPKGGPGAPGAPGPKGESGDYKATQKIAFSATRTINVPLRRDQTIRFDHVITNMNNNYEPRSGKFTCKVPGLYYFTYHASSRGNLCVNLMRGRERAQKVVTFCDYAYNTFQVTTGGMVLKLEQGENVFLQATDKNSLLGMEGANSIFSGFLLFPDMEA
T2 sequence (P02747 29-245 limits assumed, chain 3 of 3): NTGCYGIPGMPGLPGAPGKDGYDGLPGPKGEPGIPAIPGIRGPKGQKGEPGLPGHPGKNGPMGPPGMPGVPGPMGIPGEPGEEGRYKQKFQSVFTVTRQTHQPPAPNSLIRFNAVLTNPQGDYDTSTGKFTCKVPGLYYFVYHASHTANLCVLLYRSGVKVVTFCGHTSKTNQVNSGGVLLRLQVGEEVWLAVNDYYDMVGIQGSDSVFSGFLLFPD
T1 sequence (P12314 16-374 limits assumed): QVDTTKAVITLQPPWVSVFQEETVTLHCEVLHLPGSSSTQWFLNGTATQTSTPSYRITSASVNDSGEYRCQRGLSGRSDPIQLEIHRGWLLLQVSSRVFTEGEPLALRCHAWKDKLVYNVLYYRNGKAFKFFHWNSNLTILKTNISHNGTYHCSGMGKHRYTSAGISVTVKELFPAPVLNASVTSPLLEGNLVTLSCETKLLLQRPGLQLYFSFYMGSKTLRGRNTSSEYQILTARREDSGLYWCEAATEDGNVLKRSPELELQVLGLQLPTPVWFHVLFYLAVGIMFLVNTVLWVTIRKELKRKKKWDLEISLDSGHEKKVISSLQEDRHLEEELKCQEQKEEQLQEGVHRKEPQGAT

B1: hu5c8 IgG4 variant (S228P/T299A), aglycosylated (antibody)
heavy: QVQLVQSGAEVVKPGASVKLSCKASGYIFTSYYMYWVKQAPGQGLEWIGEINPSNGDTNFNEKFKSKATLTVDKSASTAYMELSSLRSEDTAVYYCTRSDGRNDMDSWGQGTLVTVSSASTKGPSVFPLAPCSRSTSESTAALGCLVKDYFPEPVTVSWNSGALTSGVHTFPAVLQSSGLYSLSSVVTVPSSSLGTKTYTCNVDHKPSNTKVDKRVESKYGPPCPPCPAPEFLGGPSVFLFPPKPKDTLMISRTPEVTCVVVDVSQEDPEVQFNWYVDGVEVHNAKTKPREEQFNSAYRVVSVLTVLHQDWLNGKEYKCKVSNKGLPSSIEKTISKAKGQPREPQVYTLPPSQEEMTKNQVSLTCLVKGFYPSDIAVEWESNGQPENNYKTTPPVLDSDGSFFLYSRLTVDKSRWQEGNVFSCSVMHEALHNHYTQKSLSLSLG
light: DIVLTQSPATLSVSPGERATISCRASQRVSSSTYSYMHWYQQKPGQPPKLLIKYASNLESGVPARFSGSGSGTDFTLTISSVEPEDFATYYCQHSWEIPPTFGGGTKLEIKRTVAAPSVFIFPPSDEQLKSGTASVVCLLNNFYPREAKVQWKVDNALQSGNSQESVTEQDSKDSTYSLSSTLTLSKADYEKHKVYACEVTHQGLSSPVTKSFNRGEC
notes: also called IgG4 T299A; aglycosyl IgG4 T299A antibody variant
- binding result [1]: binds
- binding result [2]: no binding

B2: hu5c8 IgG1 (glycosylated parent anti-CD154 antibody) (antibody)
heavy: not shown
light: B1 light
notes: Expressed in EBNA 293 cells; also called hu5c8 antibody; glycosylated IgG1
- binding result [3]: binds
- binding result [4]: binds

Source: patent publication US20120100575A1 (Biogen, published 2012)
